Patent publication US20250277196A1, “EPSPS MUTANTS AND METHOD OF ITS USES” (CROPEDIT BIOTECHNOLOGY INC., priority 2021, published 2025)

Tests used:
Assay type in all cases: cell-based
[1] = test system: E. coli lacking EPSPS; assay: Resistance test of wheat EPSPS mutant and comparison with wild type (FIG. 4); settings: 0.2 mM glyphosate
Source text: The gene was synthesized according to the V403A mutant sequence information (SEQ ID NO:32) of the EPSPS gene on chromosome 7 of the wheat A genome and inserted into the vector pKED2 to obtain the wheat (Triticum vulgare) EPSPS mutant expression vector TaVA containing the V403A mutation. The A403 site of TaVA was mutated back to V by PCR, and a TaWt vector expressing the EPSPS wild-type gene on chromosome 7 of wheat A genome was obtained.
(§1) a) PCR system: According to the primer and template mixed PCR system corresponding to the target vector in the above table, the forward primer was 1.25 μl, the reverse primer was 1.25 μl, the template plasmid was 2 μl, the Q5 PCR master mix was 12.5 μl, and ddH2O was […].
(§2) b) PCR reaction conditions were as follows: the annealing temperature was set according to the annealing temperature corresponding to the target carrier in the above table.
(§3) c) Took out 5 μl of the obtained PCR product and added it to the loading buffer for agarose gel electrophoresis. A band with a size of about 4.5 kb was considered successful.
(§4) d) Used NEB's KLD enzyme mixture to remove the template and then connected the PCR product. The connection system was 5 μl KLD buffer, 1 μl KLD MIX, 1 μl PCR product, and ddH2O 3 μl. After ligating at room temperature for 5 min, transformed it into E. coli.
(§5) e) The ligation product was transformed into Dh5a competent E. coli lacking EPSPS. […]

[2] = test system: E. coli lacking EPSPS; assay: Resistance test of soybean EPSPS mutant and comparison with wild type (FIG. 4); settings: 0.5 mM glyphosate
Source text: According to the wild-type sequence information of soybean (Glycine max) EPSPS (SEQ ID NO:36), the gene was synthesized and inserted into the vector pKED2 to obtain the vector GmWt. The V403 site of GmWt was mutated to A by PCR, and the vector GmVA expressing the soybean EPSPS mutant protein containing the V403A mutation was obtained. The specific experimental steps were as following:
as §1, §2, §3
(§6) d) Used NEB's KLD enzyme mixture to remove the template and connected the PCR product. The connection system was 5 μl KLD buffer, 1 μl KLD MIX, 1 μl PCR product, and ddH2O 3 μl. After ligating at room temperature for 5 min, transformed it into E. coli.
as §5

[3] = test system: E. coli lacking EPSPS; assay: Resistance test of flax EPSPS V403A mutant and comparison with wild type (FIG. 4); settings: presence of 1 mM and 2 mM glyphosate
Protocol: The flax (Linum usitatissimum) EPSPS mutant sequence(SEQ ID NO: 27) was synthesized and cloned into the pKED2 vector to obtain the vector LuVA. The vector LuWt was created after introducing A403V mutation by PCR.
as §1, §2, §3, §4
e) The ligation product was transformed into Dh5a competent E. coli lacking EPSPS. After resuscitation, the cells were washed twice with M9 medium, and then the washed cells were spread on M9 medium and cultured for 48 h. […]

[4] = test system: E. coli lacking EPSPS; assay: Resistance identification of flax EPSPS mutants LuGPV, LuTIPT, LuTIPTVA (FIG. 5, FIG. 6)
Source text: The G172 position and P177 position of LuVA were mutated into A and S at the same time by PCR, and a 3-point mutant LuGPV was obtained.
The T173 and P177 positions of LuWT were simultaneously mutated to I and T by PCR, and a […] mutant LuTIPT was obtained.
The T173 and P177 positions of LuVA were simultaneously mutated to I and T by PCR, and a 3-point mutant LuTIPTVA was obtained.
as §1, §2, §3, §6
e) The ligation product was transformed into Dh5a competent E. coli lacking EPSPS. After resuscitation, the cells were washed twice with M9 medium, and then the washed cells were spread on M9 medium and cultured for 48 h. Sequenced the grown single colony (Tsingke Biological Technology Co., Ltd.), and selected the correct mutant to save for future use.
The resistance results were shown in FIG. 5: LuWt(SEQ ID NO:26) represents the EPSPS2 gene of flax, LuGPV (SEQ ID NO:30) represents the flax G172A+P177S+V403A three-point mutant. The resistance results were shown in FIG. 6: LuTIPT (SEQ ID NO:28) was the flax T173I+[…] double-point mutants, LuTIPTVA (SEQ ID NO:29) was flax T173I+P177T+V403A three-point mutants.

B1: TaVA (protein)
DNA: MAGAEEVVLQPIREISGAVQLPGSKSLSNRILLLSALSEGTTVVDNLLNSEDVHYMLEALEALGLSVEADKVAKRAVVVGCGGRFPVEKDAKEEVKLFLGNAGTAMRPLTAAVVAAGGNATYVLDGVPRMRERPIGDLVVGLQQLGADVDCFLGTNCPPVRINGKGGLPGGKVKLSGSISSQYLSSLLMAAPLALEDVEIEIIDKLISVPYVEMTLKLMEHFGVTAEHSDSWDRFYIKGGQKYKSPGNAYVEGDASSASYFLAGAAITGGTVTVEGCGTTSLQGDVKFAEVLEMMGAKVTWTDTSVTVTGPPRQPFGRKHLKAVDVNMNKMPDAAMTLAVVALFADGPTAIRDVASWRVKETERMVAIRTELTKLGATVEEGPDYCIITPPEKLNITAIDTYDDHRMAMAFSLAACAEVPVTIRDPGCTRKTFPNYFDVLSTFVKN
modifications: This sequence is synthesized in lab.
For B1, the “growth state compared with TaWt” value [1] was “significantly higher than that of TaWt”.

B2: GmVA (protein)
DNA: MAAAEKPSTAPEIVLEPIKDISGTITLPGSKSLSNRILLLAALSEGTTVVDNLLYSEDIHYMLGALRTLGLRVEDDQTTKQAIVEGCGGLFPTIKESKDEINLFLGNAGTAMRPLTAAVVAAGGNASYVLDGVPRMRERPIGDLVAGLKQLGADVDCFLGTNCPPVRVNGKGGLPGGKVKLSGSISSQYLTALLMAAPLALGDVEIEIVDKLISVPYVEMTLKLMERFGVSVEHSGNWDKFLVHGGQKYKSPGNAFVEGDASSASYFLAGAAVTGGTITVNGCGTNSLQGDVKFAEVLEKMGAKVTWSENSVTVTGPPQDSSGQKVLQGIDVNMNKMPDAAMTLAVVALFANGQTAIRDVASWRVKETERMIAICTELRKLGATVEEGPDYCVITPPEKLNVTAIDTYDDHRMAMAFSLAACGDVPVTIKDPGCTRKTFPDYFEVLERFTRH
modifications: This sequence is synthesized in lab.
B2 was tested, and the “growth status compared with GmWt” value [2] was “significantly higher than that of GmWt”.

B3: LuVA (protein)
DNA: MTVPEEIVLQPIKDISGIVTLPGSKSLSNRILLLAALSEGKTVVDNLLNSDDVHYMLGALKTLGLNVEHSSEQKRAIVEGRGGVFPVGKLGKNDIELFLGNAGTAMRPLTAAVTAAGGNSSYILDGVPRMRERPIGDLVVGLKQLGADVSCSSTSCPPVHVNAKGGLPGGKVKLSGSISSQYLTALLMAAPLALGDVEIEIVDKLISVPYVDMTLKLMERFGVAVEHSGSWDRFFVKGGQKYKSPGNAYVEGDASSASYFLAGAAITGGTITVEGCGTSSLQGDVKFAEVLEKMGAKVTWTETSVTVTGPPRDASGKKHLRAVDVNMNKMPDAAMTLAVVALYADGPTAIRDVASWRVKETERMIAVCTELRKLGATVEEGPDYCIITPPEKLSIAEIDTYDDHRMAMAFSLAACADVPVTIRDPGCTKKTFPDYFEVLERYTKH
modifications: This sequence is synthesized in lab.
With B3 the “growth status compared with LuWt” value [3] was “significantly better than that of LuWt”.

B4: LuGPV (protein)
DNA: MTVPEEIVLQPIKDISGIVTLPGSKSLSNRILLLAALSEGKTVVDNLLNSDDVHYMLGALKTLGLNVEHSSEQKRAIVEGRGGVFPVGKLGKNDIELFLGNAATAMRSLTAAVTAAGGNSSYILDGVPRMRERPIGDLVVGLKQLGADVSCSSTSCPPVHVNAKGGLPGGKVKLSGSISSQYLTALLMAAPLALGDVEIEIVDKLISVPYVDMTLKLMERFGVAVEHSGSWDRFFVKGGQKYKSPGNAYVEGDASSASYFLAGAAITGGTITVEGCGTSSLQGDVKFAEVLEKMGAKVTWTETSVTVTGPPRDASGKKHLRAVDVNMNKMPDAAMTLAVVALYADGPTAIRDVASWRVKETERMIAVCTELRKLGATVEEGPDYCIITPPEKLSIAEIDTYDDHRMAMAFSLAACADVPVTIRDPGCTKKTFPDYFEVLERYTKH
modifications: This sequence is synthesized in lab.
With B4 the “resistance compared with CP4 (colony saturation)” value ([4]; 100 mM glyphosate pressure) was “higher than CP4” and the glyphosate resistance ([4]; flax EPSPS mutant in E. coli, FIG. 5) was “strong glyphosate resistance”.

B5: LuTIPTVA (protein)
DNA: MTVPEEIVLQPIKDISGIVTLPGSKSLSNRILLLAALSEGKTVVDNLLNSDDVHYMLGALKTLGLNVEHSSEQKRAIVEGRGGVFPVGKLGKNDIELFLGNAGIAMRTLTAAVTAAGGNSSYILDGVPRMRERPIGDLVVGLKQLGADVSCSSTSCPPVHVNAKGGLPGGKVKLSGSISSQYLTALLMAAPLALGDVEIEIVDKLISVPYVDMTLKLMERFGVAVEHSGSWDRFFVKGGQKYKSPGNAYVEGDASSASYFLAGAAITGGTITVEGCGTSSLQGDVKFAEVLEKMGAKVTWTETSVTVTGPPRDASGKKHLRAVDVNMNKMPDAAMTLAVVALYADGPTAIRDVASWRVKETERMIAVCTELRKLGATVEEGPDYCIITPPEKLSIAEIDTYDDHRMAMAFSLAACADVPVTIRDPGCTKKTFPDYFEVLERYTKH
modifications: This sequence is synthesized in lab.
In the case of B5, the “resistance compared with LuTIPT” value ([4]; FIG. 6) is reported as “higher than that of LuTIPT”.
